This note sets out measurements from publication PMC5567573, “Identification, heterologous expression and characterization of a dye-decolorizing peroxidase of Pleurotus sapidus” (AMB Express, 2017).

Experiment in all cases: purified protein
Substrate in data set [1]: COc1ccccc1O
The settings on record: H2O2 62.5 µM, pH 4.5, 50 mM sodium acetate, 30 °C, 4.5 nM enzyme.

Substrate in data set [2]: CCn1c(=NN=c2sc3cc(S(=O)(=O)O)ccc3n2CC)sc2cc(S(=O)(=O)O)ccc21
It counts as biochemical, Pleurotus sapidus. Conditions: H2O2 125 µM, pH 3.8, 100 mM sodium acetate, 30 °C, 0.27 nM enzyme.

Substrate in data set [3]: COc1cccc(OC)c1O
The data set is classed as biochemical, Pleurotus sapidus. Conditions: H2O2 62.5 µM, pH 4.5, 50 mM sodium acetate, 30 °C, 1.8 nM enzyme.

B1: rPsaDyP (recombinant DyP-type peroxidase of Pleurotus sapidus) (Pleurotus sapidus) (protein)
chain: ATNGTFLPLEEIQGDIMIGMRKPKEIFFFYSLQNPRKFKSVLAKLIYPHITTTAQMVCTTCAQPSAMLNVAWTSQGLRKLGVLDNLGDPYFAMGQLSDAAALGDTDPSTTWAPGLYANKTDGAFLIAAKDWEPIDTLLNQMKAWLGDAIVETHSNRGAVRPGDAAGKEHFGWLDGFIQPAVAGFATSTYPGQQLLLPGTLLTKEIGDPRRAARPAWTKWGSFMAYRQLQELVPEFDDYLMQEAALIQDSSRSVRERADLLGARMFGRWKSGTPLDLAPEKDDPSIGPNLMLNNNFDFNHPAPFNINTNQSYCPFSAHIRKIRPRADQGNQNLKNQMIRASIPYGEELSDDEINNKKTGTERGVAFVTYQSDLGSGFHFQQAEWANNVNIPTGKSDPTPGFDPIVGQNSGKPLVVSGIDYTDLNHDLTFMSFVVSKGGDYFFSPSMSAILHKIAA
B1: in data set [1], the Km (as a rule, the concentration of substrate that gives half-maximal velocity) turned out to be 713 µM; the Vmax (in general, the rate approached at saturating substrate) came to 21 µM/min; the kcat (as a rule, the number of substrate molecules converted per active site and unit of time at saturation) was determined as 74 s⁻¹; the kcat/Km (as a rule, the second-order rate constant that governs catalysis at low substrate concentration) came out at 100000 M⁻¹ s⁻¹. Further, in data set [2], the Km is reported as 99 µM, the Vmax came out at 6 µM/min, the kcat was 375 s⁻¹ and the kcat/Km is 3.8e+06 M⁻¹ s⁻¹. Moreover, in data set [3], the Km amounted to 1227 µM, the maximal velocity (Vmax) came out at 6.6 µM/min, the kcat is 60 s⁻¹ and the kcat/Km stood at 49000 M⁻¹ s⁻¹.
